B4: His–ARID1A–ARM domain (1914–2285 aa) (domain or fragment, UniProt O14497 1914-2285, looked up)
chain: MLSTRSSTLTEDGAKSSEAIKESSKFPFGISPAQSHRNIKILEDEPHSKDETPLCTLLDWQDSLAKRCVCVSNTIRSLSFVPGNDFEMSKHPGLLLILGKLILLHHKHPERKQAPLTYEKEEEQDQGVSCNKVEWWWDCLEMLRENTLVTLANISGQLDLSPYPESICLPVLDGLLHWAVCPSAEAQDPFSTLGPNAVLSPQRLVLETLSKLSIQDNNVDLILATPPFSRLEKLYSTMVRFLSDRKNPVCREMAVVLLANLAQGDSLAARAIAVQKGSIGNLLGFLEDSLAATQFQQSQASLLHMQNPPFEPTSVDMMRRAARALLALAKVDENHSEFTLYESRLLDISVSPLMNSLVSQVICDVLFLIGQS
notes: ARID1A residues 1914-2285 (ARM domain); Limits are printed for the BLI ligand; also called His-tagged ARM domain of ARID1A

Holding throughout (conditions): both partners purified
Assay [1] deals with B4. Description: far-Western, overlay or dot blot; GST-fusion proteins separated by SDS–PAGE, transferred to PVDF, renatured through falling guanidine–HCl, incubated with His–ARID1A–ARM overnight at 4°C, probed with anti-His-tag antibody.
Assay [2] concerns the target B4. Description: BLI; Octet Red K2; His–ARID1A–ARM domain immobilised on NTA biosensors; GST recombinant proteins as analytes in serial dilutions. (In general: Biolayer interferometry detects binding as a change in optical thickness at a sensor tip.)
Another assay concerns the target T1, GST-DNTT: aa 1–509 (UniProt P04053 1-509).
T1 construct: DNA nucleotidylexotransferase (DNTT) residues 1-509; also called DNA nucleotidylexotransferase
Description: far-Western, overlay or dot blot; GST-fusion proteins separated by SDS–PAGE, transferred to PVDF, renatured through falling guanidine–HCl, incubated with His–ARID1A–ARM overnight at 4°C, probed with anti-His-tag antibody.

These results are taken from paper PMC11904782, “Armadillo domain of ARID1A directly interacts with DNA-PKcs to couple chromatin remodeling with nonhomologous end joining (NHEJ) pathway” (Nucleic Acids Research, 2025).

T1 sequence (P04053 whole entry, the tested form may be a part): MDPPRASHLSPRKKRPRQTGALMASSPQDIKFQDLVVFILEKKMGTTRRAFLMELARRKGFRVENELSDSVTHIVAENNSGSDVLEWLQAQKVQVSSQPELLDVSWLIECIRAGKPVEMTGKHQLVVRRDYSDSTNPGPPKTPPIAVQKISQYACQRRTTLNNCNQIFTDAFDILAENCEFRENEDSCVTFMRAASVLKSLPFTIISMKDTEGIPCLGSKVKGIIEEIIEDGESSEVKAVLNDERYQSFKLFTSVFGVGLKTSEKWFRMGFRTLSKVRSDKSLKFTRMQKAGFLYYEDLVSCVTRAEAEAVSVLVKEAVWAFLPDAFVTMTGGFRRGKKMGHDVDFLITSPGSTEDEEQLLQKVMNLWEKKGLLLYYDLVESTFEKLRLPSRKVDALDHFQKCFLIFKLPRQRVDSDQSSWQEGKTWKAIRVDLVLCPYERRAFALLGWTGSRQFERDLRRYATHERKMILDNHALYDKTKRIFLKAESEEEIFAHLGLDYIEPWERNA

B1: GST-EZH2-C: aa 598–746 (domain or fragment)
chain: not shown
notes: enhancer of zeste 2 PRC2 subunit 2 (EZH2) residues 598-746
As for B1, the binding result in assay [1] was “binds”.

B2: GST–DNA–PKcs ARID1A-binding region (3615–3660 aa), wild type (domain or fragment, UniProt P78527 3615-3660, looked up)
chain: AALGDPKAPGLGAFRRKFIQTFGKEFDKHFGKGGSKLLRMKLSDFN
notes: DNA-PKcs residues 3615-3660, printed as 45 amino acids
Take B2: in assay [1], the binding result is “binds”.

B3: GST-POLB (7–53 aa) (domain or fragment)
chain: not shown
notes: DNA polymerase beta residues 7-53; Printed as GAT-POLB in the methods; also called GAT-POLB (7–53 aa); recombinant POLB
Take B3: the binding result in assay [2] is listed as “binds”.

Regarding B4, in the assay with GST-DNTT: aa 1–509, the binding result is recorded as “binds”.

B5: wild-type GST–DNA–PKcs (3552–3691 aa) (domain or fragment, UniProt P78527 3552-3691, looked up)
chain: KEFVARIKSKLDQGGVIQDFINALDQLSNPELLFKDWSNDVRAELAKTPVNKKNIEKMYERMYAALGDPKAPGLGAFRRKFIQTFGKEFDKHFGKGGSKLLRMKLSDFNDITNMLLLKMNKDSKPPGNLKECSPWMSDFK
notes: DNA-PKcs residues 3552-3691; also called recombinant wild-type DNA-PKcs; longer amino acid region (3552–3691 aa)
For B5, in assay [2], the binding result is “binds”.
